For test [1], the target named is T1, Methylglyoxal-modified human serum albumin (HSA-MG) (Homo sapiens, UniProt P02768). Put plainly: peroxidase activity inhibition (ABTS, H2O2 varied).
Test [2] concerns the target T1, Methylglyoxal-modified human serum …. Put plainly: chlorinating activity inhibition (celestine blue B, H2O2 varied).
The target is the same in test [3]. Put plainly: ELISA (Scatchard plot). On the technique in general: An ELISA detects its analyte on a solid surface through an enzyme-linked reagent.
Test [4] shares this target. Put plainly: chlorinating activity inhibition (celestine blue B, NaCl varied).
Test [5] shares this target. The experiment in a line: peroxidase activity inhibition (ABTS varied).

B1: Myeloperoxidase (protein)
chain: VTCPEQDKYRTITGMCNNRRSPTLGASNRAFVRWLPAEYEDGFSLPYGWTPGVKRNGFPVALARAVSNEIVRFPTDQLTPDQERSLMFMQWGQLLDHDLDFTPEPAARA
modifications: methylglyoxal-modified HSA
On to B1, for which the Ki – broadly, a dissociation constant, usually derived from enzyme kinetics or from competition with a known ligand – in test [1] was 840 nM; in test [2] it was 800 nM; in test [4], 940 nM; in test [5], 1080 nM. Also, the Kd – broadly, the equilibrium constant for the complex coming apart – in test [3] worked out at 1.5 nM.

These data come from publication PMC9686918 (2022).
